{"source": "paper PMC2766422", "binders": {"B1": {"name": "HCV X SL3 (structured_RNA)", "RNA": "GGAGACUUGGUGGCUCCAUCUUAGCCCUA"}, "B2": {"name": "GABAA gamma2 exon 4 RNA (structured_RNA)", "RNA": "GGGCUUCUUCGGAUGUUUUCCUUCAAG"}, "B3": {"name": "c-src exon N1 RNA (structured_RNA)", "RNA": "GGGAUCGGUGCCAUCGAUGUCAGGUGUGUACCCCUUAGGAGG"}, "B4": {"name": "c-src 3' end RNA (structured_RNA)", "RNA": "GGGAUCGCUUCGCUGAGGCUGGGGGCUGCUCUCUGCAUGUGCUUCCUCCACCGCCCCUGUGUGUUUCCAGCUCUCUCCCCGUCCCUUUAGCUUACCCUGCAUCCCACCUGUAUGAGCCGUACCC"}, "B5": {"name": "GABA RNA11 (ssRNA)", "RNA": "GGGACUACGCAAUUCUCUUUUCUGUCUACAAAUCCAAAG"}, "B6": {"name": "HCV X SL2 (structured_RNA)", "RNA": "GGGUCACGGCUAGCUGUGAAAGGUCCGUGAG"}, "B7": {"name": "c-src 5' SL + N1 (78-mer, RNA78) (structured_RNA)", "RNA": "GGCAACCCUCUCCUUCUCUCUGCUUCUCUCUCGCUGGCCCUUAGGAGGAAGGUGCCAUCGAUGUCAGGUGUGUACCGAGG"}, "B8": {"name": "c-src 5' SL (39-mer) (structured_RNA)", "RNA": "GGAUCCUUCUCUCUGCUUCUCUCUCGCUGGCCCUUAGGAGG"}}, "key": {"PTB1:12 (RRM1-RRM2) [1]": {"target": "T1, PTB1:12 (RRM1-RRM2) (human, UniProt P26599-1 1-301)", "assay": "EMSA"}, "PTB1 [2]": {"target": "T2, PTB1 (human, UniProt P26599-1 1-531)", "assay": "EMSA"}, "PTB1/W4 [3]": {"target": "T3, PTB1/W4 (human, UniProt P26599-1 1-531, F487W)", "assay": "Trp fluorescence quenching"}, "PTB1/W3 [4]": {"target": "T4, PTB1/W3 (human, UniProt P26599-1 1-531, F371W)", "assay": "Trp fluorescence quenching"}, "PTB1 [5]": {"target": "T2, PTB1", "assay": "filter binding"}, "PTB1:12 (RRM1-RRM2) [6]": {"target": "T1, PTB1:12 (RRM1-RRM2)", "assay": "EMSA", "remark": "listed apart in the source"}, "PTB1:34 (RRM3-RRM4) [7]": {"target": "T5, PTB1:34 (RRM3-RRM4) (human, UniProt P26599-1 334-531)", "assay": "EMSA"}, "PTB1 [8]": {"target": "T2, PTB1", "assay": "EMSA", "remark": "listed apart in the source"}, "PTB1:34 (RRM3-RRM4) [9]": {"target": "T5, PTB1:34 (RRM3-RRM4)", "assay": "EMSA", "remark": "listed apart in the source"}, "PTB1 [10]": {"target": "T2, PTB1", "assay": "EMSA", "remark": "listed apart in the source"}, "PTB1:12 (RRM1-RRM2) [11]": {"target": "T1, PTB1:12 (RRM1-RRM2)", "assay": "EMSA", "remark": "listed apart in the source"}, "PTB1/W1": {"target": "PTB1/W1 (human, UniProt P26599-1 1-531, F98W)", "assay": "EMSA"}, "PTB1/W4 [12]": {"target": "T3, PTB1/W4", "assay": "EMSA"}, "PTB1/W3 [13]": {"target": "T4, PTB1/W3", "assay": "EMSA"}, "PTB1 [14]": {"target": "T2, PTB1", "assay": "EMSA", "remark": "listed apart in the source"}, "PTB1:34 (RRM3-RRM4) [15]": {"target": "T5, PTB1:34 (RRM3-RRM4)", "assay": "EMSA", "remark": "listed apart in the source"}, "PTB1 [16]": {"target": "T2, PTB1", "assay": "EMSA", "remark": "listed apart in the source"}, "PTB1 [17]": {"target": "T2, PTB1", "assay": "EMSA", "remark": "listed apart in the source"}}, "note": "Where two headings read alike, the source gives them in different places."}
{"binder": "B1", "values": [{"measurement": "Kd", "setting": "PTB1:12 (RRM1-RRM2) [1]", "value": "1600 ± 600", "unit": "nM"}, {"measurement": "Kd", "setting": "PTB1 [2]", "value": "285 ± 120", "unit": "nM"}, {"measurement": "binding result", "setting": "PTB1/W4 [3]", "value": "binds"}, {"measurement": "binding result", "setting": "PTB1/W3 [4]", "value": "binds"}, {"measurement": "Kd", "setting": "PTB1 [5]", "value": "410 ± 30", "unit": "nM"}]}
{"binder": "B2", "values": [{"measurement": "binding result", "setting": "PTB1:12 (RRM1-RRM2) [6]", "value": "no binding"}, {"measurement": "binding result", "setting": "PTB1:34 (RRM3-RRM4) [7]", "value": "no binding"}, {"measurement": "binding result", "setting": "PTB1 [8]", "value": "no binding"}]}
{"binder": "B3", "values": [{"measurement": "binding result", "setting": "PTB1:12 (RRM1-RRM2) [6]", "value": "no binding"}, {"measurement": "binding result", "setting": "PTB1:34 (RRM3-RRM4) [7]", "value": "no binding"}, {"measurement": "binding result", "setting": "PTB1 [8]", "value": "no binding"}]}
{"binder": "B4", "values": [{"measurement": "binding result", "setting": "PTB1:34 (RRM3-RRM4) [9]", "value": "binds"}, {"measurement": "binding result", "setting": "PTB1 [10]", "value": "binds"}]}
{"binder": "B5", "values": [{"measurement": "binding result", "setting": "PTB1:12 (RRM1-RRM2) [11]", "value": "no binding"}, {"measurement": "binding signal", "setting": "PTB1/W1", "value": "~2 fold lower affinity than PTB1"}, {"measurement": "binding signal", "setting": "PTB1/W4 [12]", "value": "~2 fold lower affinity than PTB1"}, {"measurement": "binding signal", "setting": "PTB1/W3 [13]", "value": "~2 fold lower affinity than PTB1"}, {"measurement": "Kd", "setting": "PTB1 [14]", "value": "15 ± 2", "unit": "nM"}, {"measurement": "Kd", "setting": "PTB1:34 (RRM3-RRM4) [15]", "value": "50 ± 3", "unit": "nM"}]}
{"binder": "B6", "values": [{"measurement": "binding result", "setting": "PTB1 [8]", "value": "no binding"}]}
{"binder": "B7", "values": [{"measurement": "Kd", "setting": "PTB1 [16]", "value": "80 ± 2", "unit": "nM"}]}
{"binder": "B8", "values": [{"measurement": "Kd", "setting": "PTB1 [17]", "value": "45 ± 2", "unit": "nM"}]}
